These results are taken from patent US20190225662A1 (VIB VZW, published 2019).

B1: ExD-AcD fragment of APP695 (without Fc) (ligand)
chain: SVDSADAEEDDSDVWWGGADTDYADGGEDKVVEVAEEEEVADVEEEEADDDEDVEDGDEVEEEAEEPYEEATERTTSTATTTTTTTESVEEVVRVPTTAASTPD
notes: also called APP695 ExD-AcD fragment; sAPPα ExD-AcD
B2: Sushi domain 1 of the GABAB1a receptor, purified (receptor)
chain: TSEGCQIIHPPWEGGIRYRGLTRDQVKAINFLPVDYEIEYVCRGEREVVGPKVRKCLANGSWTDMDTPSRCV
notes: also called Sushi 1; sushi1
B3: sAPPα (Fc cleaved) (ligand)
chain: LEVPTDGNAGLLAEPQIAMFCGKLNMHMNVQNGKWESDPSGTKTCIGTKEGILQYCQEVYPELQITNVVEANQPVTIQNWCKRGRKQCKTHTHIVIPYRCLVGEFVSDALLVPDKCKFLHQERMDVCETHLHWHTVAKETCSEKSTNLHDYGMLLPCGIDKFRGVEFVCCPLAEESDSVDSADAEEDDSDVWWGGADTDYADGGEDKVVEVAEEEEVADVEEEEADDDEDVEDGDEVEEEAEEPYEEATERTTSTATTTTTTTESVEEVVRVPTTAASTPDAVDKYLETPGDENEHAHFQKAKERLEAKHRERMSQVMREWEEAERQAKNLPKADKKAVIQHFQEKVESLEQEAANERQQLVETHMARVEAMLNDRRRLALENYITALQAVPPRPHHVFNMLKKYVRAEQKDRQHTLKHFEHVRMVDPKKAAQIRSQVMTHLRVIYERMNQSLSLLYNVPAVAEEIQDEVDELLQKEQNYSDDVLANMISEPRISYGNDALMPSLTETKTTVELLPVNGEFSLDDLQPWHPFGVDSVPANTENEVEPVDARPAADRGLTTRPGSGLTNIKTEEISEVKMDAEFGHDSGFEVRHQK
notes: Made as an Fc fusion in HEK293 cells; also called soluble amyloid precursor protein α; purified sAPPα

For experiment [1], the target named is B2. Put plainly: ITC of the synthetic peptide … (211-220) with purified sushi 1. As to the method:
(§1) All ITC experiments were carried out on a MicroCal iTC200 system. For ITC experiments involving APP constructs expressed in HEK293 cells, the purified GABABR1a-Sushi1 domain, sAPPα, CuBDAcD, AcD and CuBD constructs were buffer-exchanged by size exclusion chromatography in 20 mM Na-HEPES pH 7.0, 150 mM NaCl supplemented with 5 mM CaCl2. Concentrated samples were diluted and degassed before the experiment at the concentrations reported in the Fig. legends. sAPP fragments (all of them at 30 μM) were placed in the MicroCal sample cell and matching buffer was placed in the reference cell. Sushi1 (300 μM) was in the syringe and was injected into the cell in a series of 1 μL injections at 25° C. All the datasets were subtracted with a reference data consisting of serial injections of Sushi 1 in the cell, containing buffer only under the same conditions. For ITC experiments involving synthetic APP peptides, the Sushi-1 protein was dialysed overnight to PBS buffer. The 17-mer peptide was resuspended in H2O:acetonitrile (5:1) at a stock concentration of 3 mM, and diluted in PBS to 300 uM. In order to avoid buffer-buffer mismatches, the same amount of H2O:acetonitrile mixture was also added when diluting the protein to a 30 uM concentration. The 9-mer peptide was resuspended in PBS. Titrations comprised 26×1.5 μL injections of peptide into the protein, with 90 s intervals. […]

Experiment [2] concerns the target B2. Put plainly: ITC, sushi1 (300 µM) injected into ExD-AcD (30 µM); N is the fitted stoichiometry on the Molar Ratio axis. As to the method: as §1
Experiment [3] deals with B2. The experiment is described as follows: ITC with purified sushi 1. As to the method: as §1
Experiment [4] has as its target B1. The experiment is described as follows: ITC, sushi1 (300 µM) injected into ExD-AcD (30 µM). As to the method:
as §1
(In general: Isothermal titration calorimetry measures the heat released or taken up as one component is titrated into another.)

Experiment [5] addresses B3. Put plainly: ITC, Sushi1 (300 µM) injected into sAPPα (30 µM), 25° C. How it is done: as §1
Experiment [6] concerns the target B2. The experiment is described as follows: ITC of the synthetic peptide with purified sushi 1 (peptide injected into the protein); N is the fitted stoichiometry. How it is done:
as §1

Experiment [7] has as its target B2. Put plainly: ITC, sushi1 (300 µM) injected into sAPPα (30 µM); N is the fitted stoichiometry on the Molar Ratio axis. As to the method:
as §1

The target of experiment [8] is B2. The experiment is described as follows: ITC, peptide (300 uM) injected into Sushi-1 protein (30 uM), PBS; 17mer peptide, APP695 204-220. How it is done:
as §1

By Kd is commonly meant the free concentration of one partner at which half of the binding sites on the other are occupied at equilibrium, for simple one-to-one binding. Read a low Kd as tighter binding.

In the case of GGADTDYADG [synthetic peptide, APP695 residues 211-220], the binding result in experiment [1] was “no binding”.
For B1, the N in experiment [2] worked out at 1.16. Moreover, the molar ratio in experiment [3] is ~1.
B2: the results for the Kd in experiment [4] and in experiment [5] were 0.621 µM and 0.431 µM, respectively.
In experiment [6], DDSDVWWGG (also called 204-212AA) [synthetic 9mer peptide, APP695 residues 204-212] displayed an N of 0.96.
With B3, the N in experiment [7] amounted to 1.12.
DDSDVWWGGADTDYADG (also called 17AA stretch) [synthetic 17mer peptide, APP695 204-220AA] displayed a Kd in experiment [8] of 0.81 µM. In addition, the N in experiment [6] amounted to 0.72.
